Laboratory results: IntAct's records for PubMed 32296183

B1: Ceroid-lipofuscinosis neuronal protein 6 (Homo sapiens), Q9NWW5 (parent)
chain: MEATRRRQHLGATGGPGAQLGASFLQARHGSVSADEAARTAPFHLDLWFYFTLQNWVLDFGRPIAMLVFPLEWFPLNKPSVGDYFHMAYNVITPFLLLKLIERSPRTLPRSITYVSIIIFIMGASIHLVGDSVNHRLLFSGYQHHLSVRENPIIKNLKPETLIDSFELLYYYDEYLGHCMWYIPFFLILFMYFSGCFTASKAESLIPGPALLLVAPSGLYYWYLVTEGQIFILFIFTFFAMLALVLHQKRKRLFLDSNGLFLFSSFALTLLLVALWVAWLWNDPVLRKKYPGVIYVPEPWAFYTLHVSSRH
partner: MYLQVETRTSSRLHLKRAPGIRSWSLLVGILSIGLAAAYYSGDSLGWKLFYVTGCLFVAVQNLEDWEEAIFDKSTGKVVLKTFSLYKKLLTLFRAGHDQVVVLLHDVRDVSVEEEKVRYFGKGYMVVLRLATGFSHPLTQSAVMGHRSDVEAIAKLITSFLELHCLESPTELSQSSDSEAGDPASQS
B2: Golgi SNAP receptor complex member 2 (Homo sapiens), O14653 (parent)
chain: MDPLFQQTHKQVHEIQSCMGRLETADKQSVHIVENEIQASIDQIFSRLERLEILSSKEPPNKRQNARLRVDQLKYDVQHLQTALRNFQHRRHAREQQERQREELLSRTFTTNDSDTTIPMDESLQFNSSLQKVHNGMDDLILDGHNILDGLRTQRLTLKGTQKKILDIANMLGLSNTVMRLIEKRAFQDKYFMIGGMLLTCVVMFLVVQYLT
partner: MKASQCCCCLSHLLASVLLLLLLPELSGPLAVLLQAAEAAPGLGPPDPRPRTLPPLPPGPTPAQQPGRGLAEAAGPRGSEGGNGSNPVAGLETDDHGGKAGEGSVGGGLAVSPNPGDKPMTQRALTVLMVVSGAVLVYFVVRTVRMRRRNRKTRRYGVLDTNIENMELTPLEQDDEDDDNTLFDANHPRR
B3: Catenin alpha-3 (Homo sapiens), Q9UI47-2 (parent)
chain: MSAETPITLNIDPQDLQVQTFTVEKLLEPLIIQVTTLVNCPQNPSSRKKGRSKRASVLLASVEEATWNLLDKGEKIAQEATVLKDELTASLEEVRKESEALKVSAERFTDDPCFLPKREAVVQAARALLAAVTRLLILADMIDVMCLLQHVSAFQRTFESLKNVANKSDLQKTYQKLGKELENLDYLAFKRQQDLKSPNQRDEIAGARASLKENSPLLHSICSACLEHSDVASLKASKDTVCEEIQNALNVISNASQGIQNMTTPPEPQAATLGSALDELENLIVLNPLTVTEEEIRPSLEKRLEAIISGAALLADSSCTRDLHRERIIAECNAIRQALQDLLSEYMNNAGKKERSNTLNIALDNMCKKTRDLRRQLRKAIIDHVSDSFLDTTVPLLVLIEAAKNGREKEIKEYAAIFHEHTSRLVEVANLACSMSTNEDGIKIVKIAANHLETLCPQIINAALALAARPKSQAVKNTMEMYKRTWENHIHVLTEAVDDITSIDDFLAVSGMFLFF
partner: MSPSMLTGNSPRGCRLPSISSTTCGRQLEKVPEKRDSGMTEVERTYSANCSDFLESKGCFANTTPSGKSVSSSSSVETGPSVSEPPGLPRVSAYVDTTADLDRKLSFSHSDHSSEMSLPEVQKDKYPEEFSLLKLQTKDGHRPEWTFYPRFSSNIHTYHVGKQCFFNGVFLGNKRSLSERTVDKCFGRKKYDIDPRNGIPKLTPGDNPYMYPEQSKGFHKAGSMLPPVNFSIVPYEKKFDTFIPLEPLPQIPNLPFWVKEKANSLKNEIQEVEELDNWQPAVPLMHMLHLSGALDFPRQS
B4: Succinate--CoA ligase [ADP-forming] subunit beta, mitochondrial (Homo sapiens), Q9P2R7 (parent)
chain: MAASMFYGRLVAVATLRNHRPRTAQRAAAQVLGSSGLFNNHGLQVQQQQQRNLSLHEYMSMELLQEAGVSVPKGYVAKSPDEAYAIAKKLGSKDVVIKAQVLAGGRGKGTFESGLKGGVKIVFSPEEAKAVSSQMIGKKLFTKQTGEKGRICNQVLVCERKYPRREYYFAITMERSFQGPVLIGSSHGGVNIEDVAAESPEAIIKEPIDIEEGIKKEQALQLAQKMGFPPNIVESAAENMVKLYSLFLKYDATMIEINPMVEDSDGAVLCMDAKINFDSNSAYRQKKIFDLQDWTQEDERDKDAAKANLNYIGLDGNIGCLVNGAGLAMATMDIIKLHGGTPANFLDVGGGATVHQVTEAFKLITSDKKVLAILVNIFGGIMRCDVIAQGIVMAVKDLEIKIPVVVRLQGTRVDDAKALIADSGLKILACDDLDEAARMVVKLSEIVTLAKQAHVDVKFQLPI
partner: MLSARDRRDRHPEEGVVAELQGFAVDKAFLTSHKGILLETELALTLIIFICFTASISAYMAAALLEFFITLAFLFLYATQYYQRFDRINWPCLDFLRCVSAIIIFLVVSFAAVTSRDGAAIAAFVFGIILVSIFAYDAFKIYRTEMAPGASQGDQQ
B5: Transmembrane protein 43 (Homo sapiens), Q9BTV4 (parent)
chain: MAANYSSTSTRREHVKVKTSSQPGFLERLSETSGGMFVGLMAFLLSFYLIFTNEGRALKTATSLAEGLSLVVSPDSIHSVAPENEGRLVHIIGALRTSKLLSDPNYGVHLPAVKLRRHVEMYQWVETEESREYTEDGQVKKETRYSYNTEWRSEIINSKNFDREIGHKNPSAMAVESFMATAPFVQIGRFFLSSGLIDKVDNFKSLSLSKLEDPHVDIIRRGDFFYHSENPKYPEVGDLRVSFSYAGLSGDDPDLGPAHVVTVIARQRGDQLVPFSTKSGDTLLLLHHGDFSAEEVFHRELRSNSMKTWGLRAAGWMAMFMGLNLMTRILYTLVDWFPVFRDLVNIGLKAFAFCVATSLTLLTVAAGWLFYRPLWALLIAGLALVPILVARTRVPAKKLE

Variants of: B1
Conditions: with cybc1_human CYBC1, Q9BQA9

Row | effect of a mutation on the interaction | Variant
1 | disrupting interaction strength | G123D
2 | disrupting interaction strength | L47F

Variants of: B2
Conditions: with FAM174A

Row | effect of a mutation on the interaction | Variant
3 | with no effect | G144W

Variants of: B3
Conditions: with spas1_human SPATS1, Q496A3

Row | effect of a mutation on the interaction | Variant
4 | disrupting interaction strength | V94D

Variants of: B4
Conditions: with CMTM5, Q96DZ9-2

Row | effect of a mutation on the interaction | Variant
5 | disrupting interaction strength | D251N
6 | disrupting interaction strength | G118R

Variants of: B5
Conditions: with ubp25_human USP25, Q9UHP3
ubp25_human USP25, Q9UHP3, sequence (Q9UHP3 whole entry): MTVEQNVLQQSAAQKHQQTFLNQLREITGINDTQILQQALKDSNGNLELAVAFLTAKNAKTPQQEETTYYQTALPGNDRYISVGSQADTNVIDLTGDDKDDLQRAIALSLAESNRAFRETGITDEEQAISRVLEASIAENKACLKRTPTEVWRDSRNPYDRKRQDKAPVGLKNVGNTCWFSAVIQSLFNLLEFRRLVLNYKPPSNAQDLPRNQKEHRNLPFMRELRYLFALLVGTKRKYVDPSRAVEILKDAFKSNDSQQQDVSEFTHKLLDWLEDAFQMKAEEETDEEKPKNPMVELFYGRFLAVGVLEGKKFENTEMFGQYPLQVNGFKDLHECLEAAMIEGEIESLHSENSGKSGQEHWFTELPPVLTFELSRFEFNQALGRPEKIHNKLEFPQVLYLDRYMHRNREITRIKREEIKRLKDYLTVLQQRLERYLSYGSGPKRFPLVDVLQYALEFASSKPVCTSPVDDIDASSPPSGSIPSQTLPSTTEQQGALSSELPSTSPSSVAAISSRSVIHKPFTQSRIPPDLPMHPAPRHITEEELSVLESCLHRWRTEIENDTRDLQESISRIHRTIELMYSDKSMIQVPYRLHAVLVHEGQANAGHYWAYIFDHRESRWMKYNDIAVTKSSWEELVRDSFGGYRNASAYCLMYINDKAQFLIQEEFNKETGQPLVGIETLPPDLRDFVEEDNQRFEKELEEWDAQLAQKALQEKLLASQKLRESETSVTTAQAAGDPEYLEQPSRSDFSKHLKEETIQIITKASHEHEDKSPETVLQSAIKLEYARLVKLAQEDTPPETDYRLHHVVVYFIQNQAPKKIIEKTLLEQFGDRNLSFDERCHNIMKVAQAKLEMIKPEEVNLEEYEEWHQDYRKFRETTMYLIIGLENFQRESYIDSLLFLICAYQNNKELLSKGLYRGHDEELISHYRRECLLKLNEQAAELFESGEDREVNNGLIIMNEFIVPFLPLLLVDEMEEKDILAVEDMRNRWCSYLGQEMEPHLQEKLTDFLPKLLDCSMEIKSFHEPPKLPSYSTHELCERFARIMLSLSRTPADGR

Row | effect of a mutation on the interaction | Variant
7 | with no effect | E142K
8 | with no effect | R28W
9 | with no effect | E85K

Variants of: B5
Conditions: with ar13b_human ARL13B

Row | effect of a mutation on the interaction | Variant
10 | disrupting interaction strength | E142K
11 | disrupting interaction strength | R28W
12 | disrupting interaction strength | E85K

Variants of: B5
Conditions: with FGA

Row | effect of a mutation on the interaction | Variant
13 | with no effect | E142K
14 | with no effect | R28W
15 | with no effect | E85K

Variants of: B5
Conditions: with PCYT1B

Row | effect of a mutation on the interaction | Variant
16 | with no effect | E142K
17 | with no effect | R28W
18 | with no effect | E85K

Variants of: B5
Conditions: with zch12_human ZCCHC12, Q6PEW1
zch12_human ZCCHC12, Q6PEW1, sequence (Q6PEW1 whole entry): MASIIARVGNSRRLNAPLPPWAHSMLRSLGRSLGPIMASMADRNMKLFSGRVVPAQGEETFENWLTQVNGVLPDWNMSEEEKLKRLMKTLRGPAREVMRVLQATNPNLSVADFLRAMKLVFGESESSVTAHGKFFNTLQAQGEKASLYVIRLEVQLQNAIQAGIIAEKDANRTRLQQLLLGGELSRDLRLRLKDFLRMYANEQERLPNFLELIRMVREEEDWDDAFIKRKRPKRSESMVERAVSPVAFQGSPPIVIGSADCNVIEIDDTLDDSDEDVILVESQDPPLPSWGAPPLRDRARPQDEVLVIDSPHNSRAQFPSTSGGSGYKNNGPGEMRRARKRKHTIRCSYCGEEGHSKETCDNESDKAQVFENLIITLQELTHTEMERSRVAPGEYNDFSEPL

Row | effect of a mutation on the interaction | Variant
19 | with no effect | E142K
20 | with no effect | R28W
21 | with no effect | E85K
